{
  "source": "paper PMC12341506",
  "target": "3nv.2 SOSIP Env trimer (HIV-1 (clade C strain 426c))",
  "experiment": "cryo-EM structure; single-particle cryo-EM of unliganded 3nv.2 SOSIP Env, from a sample incubated with polyclonal Fabs and purified by SEC in TBS; 2D class averages and 3D map, C1 or C3 symmetry",
  "data": [
    {"substance": "3nv.2 SOSIP Env trimer", "values": [
      {"measurement": "stoichiometry N", "result": 3}
    ]}
  ]
}
